Source: the supplement of paper PMC9112550, “Optimization of the antimicrobial peptide Bac7 by deep mutational scanning” (BMC Biology, 2022)
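Further: peptides expressed intracellularly from a pBAD plasmid library in pooled LB shake-flask culture, induced with 0.3% L-arabinose, DNA abundance read by NGS, three biological replicates, DESeq2 with apeglm shrinkage.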

What follows are sequences tested on Escherichia coli TOP10 (assay: shrunken log2 fold change of peptide-encoding DNA abundance (4.5 h post-induction vs induction); higher = less antimicrobial activity (less host growth inhibition)). Conditions: time post-induction: 4.5 h; library: site-saturation at positions 5, 18, 19, 20.
RRIRRRPPRLPRPRPRPIPTPRP was tested, and the “shrunken log2 fold change” value was 0.063. RRIRRRPPRLPRPRPRPIQDPRP was tested, and the “shrunken log2 fold change” value was 2.65. RRIRRRPPRLPRPRPRPISAPRP was tested, and the “shrunken log2 fold change” value was 0.122. RRIRRRPPRLPRPRPRPISTPRP was tested, and the “shrunken log2 fold change” value was -0.0842. In the case of RRIRRRPPRLPRPRPRPITEPRP, the “shrunken log2 fold change” value is reported as 0.0622. RRIRRRPPRLPRPRPRPIVMPRP was tested, and the “shrunken log2 fold change” value was -0.0167. For RRIRRRPPRLPRPRPRPIWRPRP, the “shrunken log2 fold change” value was 0.181. With RRIRRRPPRLPRPRPRPIYHPRP the “shrunken log2 fold change” value was -0.258. For RRIRRRPPRLPRPRPRPKADPRP, the “shrunken log2 fold change” value was 0.198. In the case of RRIRRRPPRLPRPRPRPKAHPRP, the “shrunken log2 fold change” value is reported as 0.515. With RRIRRRPPRLPRPRPRPKAWPRP the “shrunken log2 fold change” value was 0.0767. For RRIRRRPPRLPRPRPRPKAYPRP, the “shrunken log2 fold change” value was 0.224. RRIRRRPPRLPRPRPRPKCEPRP was tested, and the “shrunken log2 fold change” value was 0.0268. With RRIRRRPPRLPRPRPRPKCNPRP the “shrunken log2 fold change” value was -0.0456. For RRIRRRPPRLPRPRPRPKDQPRP, the “shrunken log2 fold change” value was 0.26. In the case of RRIRRRPPRLPRPRPRPKELPRP, the “shrunken log2 fold change” value is reported as 0.166. RRIRRRPPRLPRPRPRPKFEPRP was tested, and the “shrunken log2 fold change” value was 0.0131. RRIRRRPPRLPRPRPRPKFVPRP was tested, and the “shrunken log2 fold change” value was -0.151. With RRIRRRPPRLPRPRPRPKGGPRP the “shrunken log2 fold change” value was 0.183. In the case of RRIRRRPPRLPRPRPRPKGNPRP, the “shrunken log2 fold change” value is reported as 0.0579. With RRIRRRPPRLPRPRPRPKIKPRP the “shrunken log2 fold change” value was -0.0183. For RRIRRRPPRLPRPRPRPKIPPRP, the “shrunken log2 fold change” value was 0.0427. In the case of RRIRRRPPRLPRPRPRPKIVPRP, the “shrunken log2 fold change” value is reported as 0.0944. RRIRRRPPRLPRPRPRPKIYPRP was tested, and the “shrunken log2 fold change” value was -0.127. In the case of RRIRRRPPRLPRPRPRPKLLPRP, the “shrunken log2 fold change” value is reported as 0.178. In the case of RRIRRRPPRLPRPRPRPKMPPRP, the “shrunken log2 fold change” value is reported as 0.191. In the case of RRIRRRPPRLPRPRPRPKNAPRP, the “shrunken log2 fold change” value is reported as 0.0423. For RRIRRRPPRLPRPRPRPKNPPRP, the “shrunken log2 fold change” value was 0.124. RRIRRRPPRLPRPRPRPKNSPRP was tested, and the “shrunken log2 fold change” value was -0.0537. RRIRRRPPRLPRPRPRPKNWPRP was tested, and the “shrunken log2 fold change” value was 0.381. With RRIRRRPPRLPRPRPRPKPCPRP the “shrunken log2 fold change” value was 0.126. RRIRRRPPRLPRPRPRPKPGPRP was tested, and the “shrunken log2 fold change” value was 0.535. For RRIRRRPPRLPRPRPRPKPRPRP, the “shrunken log2 fold change” value was 0.825. RRIRRRPPRLPRPRPRPKSLPRP was tested, and the “shrunken log2 fold change” value was 0.0308. With RRIRRRPPRLPRPRPRPKTQPRP the “shrunken log2 fold change” value was 0.273. In the case of RRIRRRPPRLPRPRPRPKVDPRP, the “shrunken log2 fold change” value is reported as 0.0529. In the case of RRIRRRPPRLPRPRPRPKVYPRP, the “shrunken log2 fold change” value is reported as -0.0919. For RRIRRRPPRLPRPRPRPKWKPRP, the “shrunken log2 fold change” value was -0.0205. For RRIRRRPPRLPRPRPRPKWYPRP, the “shrunken log2 fold change” value was 0.0824. In the case of RRIRRRPPRLPRPRPRPKYCPRP, the “shrunken log2 fold change” value is reported as 0.0144. RRIRRRPPRLPRPRPRPKYQPRP was tested, and the “shrunken log2 fold change” value was -0.017. In the case of RRIRRRPPRLPRPRPRPLAHPRP, the “shrunken log2 fold change” value is reported as 0.223. RRIRRRPPRLPRPRPRPLDHPRP was tested, and the “shrunken log2 fold change” value was -0.357. With RRIRRRPPRLPRPRPRPLFCPRP the “shrunken log2 fold change” value was 0.24. In the case of RRIRRRPPRLPRPRPRPLFNPRP, the “shrunken log2 fold change” value is reported as -0.162. RRIRRRPPRLPRPRPRPLHHPRP was tested, and the “shrunken log2 fold change” value was 0.31. In the case of RRIRRRPPRLPRPRPRPLLLPRP, the “shrunken log2 fold change” value is reported as 0.0522. For RRIRRRPPRLPRPRPRPLMLPRP, the “shrunken log2 fold change” value was -0.108. RRIRRRPPRLPRPRPRPLNCPRP was tested, and the “shrunken log2 fold change” value was -0.304. For RRIRRRPPRLPRPRPRPLVKPRP, the “shrunken log2 fold change” value was -0.179. In the case of RRIRRRPPRLPRPRPRPLWHPRP, the “shrunken log2 fold change” value is reported as 1.15. RRIRRRPPRLPRPRPRPLWTPRP was tested, and the “shrunken log2 fold change” value was 0.129. With RRIRRRPPRLPRPRPRPLYNPRP the “shrunken log2 fold change” value was -0.295. In the case of RRIRRRPPRLPRPRPRPLYVPRP, the “shrunken log2 fold change” value is reported as -0.379. With RRIRRRPPRLPRPRPRPMAMPRP the “shrunken log2 fold change” value was -0.011. RRIRRRPPRLPRPRPRPMCKPRP was tested, and the “shrunken log2 fold change” value was 0.141. RRIRRRPPRLPRPRPRPMEFPRP was tested, and the “shrunken log2 fold change” value was 0.0274. In the case of RRIRRRPPRLPRPRPRPMFMPRP, the “shrunken log2 fold change” value is reported as -0.192. For RRIRRRPPRLPRPRPRPMHGPRP, the “shrunken log2 fold change” value was 0.144. RRIRRRPPRLPRPRPRPMHPPRP was tested, and the “shrunken log2 fold change” value was 0.552. In the case of RRIRRRPPRLPRPRPRPMHRPRP, the “shrunken log2 fold change” value is reported as 0.0514. RRIRRRPPRLPRPRPRPMHVPRP was tested, and the “shrunken log2 fold change” value was 0.281. In the case of RRIRRRPPRLPRPRPRPMICPRP, the “shrunken log2 fold change” value is reported as -0.0373. With RRIRRRPPRLPRPRPRPMIDPRP the “shrunken log2 fold change” value was -0.1. RRIRRRPPRLPRPRPRPMKNPRP was tested, and the “shrunken log2 fold change” value was 0.298. For RRIRRRPPRLPRPRPRPMKQPRP, the “shrunken log2 fold change” value was 0.134. In the case of RRIRRRPPRLPRPRPRPMKTPRP, the “shrunken log2 fold change” value is reported as 0.0796. For RRIRRRPPRLPRPRPRPMLQPRP, the “shrunken log2 fold change” value was -0.274. In the case of RRIRRRPPRLPRPRPRPMMNPRP, the “shrunken log2 fold change” value is reported as 0.00643. For RRIRRRPPRLPRPRPRPMPLPRP, the “shrunken log2 fold change” value was 2.47. In the case of RRIRRRPPRLPRPRPRPMRPPRP, the “shrunken log2 fold change” value is reported as 0.66. For RRIRRRPPRLPRPRPRPMSDPRP, the “shrunken log2 fold change” value was -0.00309. In the case of RRIRRRPPRLPRPRPRPMSKPRP, the “shrunken log2 fold change” value is reported as 0.404. RRIRRRPPRLPRPRPRPMSLPRP was tested, and the “shrunken log2 fold change” value was -0.0564. RRIRRRPPRLPRPRPRPMTLPRP was tested, and the “shrunken log2 fold change” value was -0.142. In the case of RRIRRRPPRLPRPRPRPMVRPRP, the “shrunken log2 fold change” value is reported as 0.276. RRIRRRPPRLPRPRPRPMYYPRP was tested, and the “shrunken log2 fold change” value was -0.232. RRIRRRPPRLPRPRPRPNACPRP was tested, and the “shrunken log2 fold change” value was -0.00291. In the case of RRIRRRPPRLPRPRPRPNASPRP, the “shrunken log2 fold change” value is reported as -0.0114. RRIRRRPPRLPRPRPRPNEHPRP was tested, and the “shrunken log2 fold change” value was -0.118. With RRIRRRPPRLPRPRPRPNENPRP the “shrunken log2 fold change” value was 0.256. For RRIRRRPPRLPRPRPRPNESPRP, the “shrunken log2 fold change” value was 0.137. RRIRRRPPRLPRPRPRPNHIPRP was tested, and the “shrunken log2 fold change” value was -0.502. For RRIRRRPPRLPRPRPRPNHRPRP, the “shrunken log2 fold change” value was -0.0368. For RRIRRRPPRLPRPRPRPNHWPRP, the “shrunken log2 fold change” value was 0.0169. RRIRRRPPRLPRPRPRPNIPPRP was tested, and the “shrunken log2 fold change” value was -0.24. For RRIRRRPPRLPRPRPRPNITPRP, the “shrunken log2 fold change” value was -0.128. For RRIRRRPPRLPRPRPRPNIVPRP, the “shrunken log2 fold change” value was -0.171. RRIRRRPPRLPRPRPRPNKNPRP was tested, and the “shrunken log2 fold change” value was 0.153. For RRIRRRPPRLPRPRPRPNKTPRP, the “shrunken log2 fold change” value was -0.00203. For RRIRRRPPRLPRPRPRPNKVPRP, the “shrunken log2 fold change” value was -0.213. In the case of RRIRRRPPRLPRPRPRPNLAPRP, the “shrunken log2 fold change” value is reported as 0.176. For RRIRRRPPRLPRPRPRPNLWPRP, the “shrunken log2 fold change” value was 0.552. RRIRRRPPRLPRPRPRPNMNPRP was tested, and the “shrunken log2 fold change” value was -0.463. For RRIRRRPPRLPRPRPRPNNEPRP, the “shrunken log2 fold change” value was -0.246. With RRIRRRPPRLPRPRPRPNNNPRP the “shrunken log2 fold change” value was -0.426. For RRIRRRPPRLPRPRPRPNRFPRP, the “shrunken log2 fold change” value was 0.156. With RRIRRRPPRLPRPRPRPNSGPRP the “shrunken log2 fold change” value was 0.279. In the case of RRIRRRPPRLPRPRPRPNTDPRP, the “shrunken log2 fold change” value is reported as -0.106. With RRIRRRPPRLPRPRPRPNWNPRP the “shrunken log2 fold change” value was -0.115. For RRIRRRPPRLPRPRPRPNWWPRP, the “shrunken log2 fold change” value was 1.05. In the case of RRIRRRPPRLPRPRPRPNYCPRP, the “shrunken log2 fold change” value is reported as -0.25. For RRIRRRPPRLPRPRPRPNYFPRP, the “shrunken log2 fold change” value was -0.323. For RRIRRRPPRLPRPRPRPNYSPRP, the “shrunken log2 fold change” value was -0.0871. For RRIRRRPPRLPRPRPRPPAKPRP, the “shrunken log2 fold change” value was 1.35. RRIRRRPPRLPRPRPRPPDKPRP was tested, and the “shrunken log2 fold change” value was 0.303. For RRIRRRPPRLPRPRPRPPECPRP, the “shrunken log2 fold change” value was 0.222. With RRIRRRPPRLPRPRPRPPGPPRP the “shrunken log2 fold change” value was 0.8. For RRIRRRPPRLPRPRPRPPIGPRP, the “shrunken log2 fold change” value was -0.149.
